Measured values published in US20120065146A1 (published 2012).
Starred links: 1 amine or outer side, 2 acyl side, 3 side chain; linkers in the order of their positions; H or OH if unused. Non-standard residues stand in square brackets, D forms with d. No end group written: not given here. F2Pmab = 2-amino-4,4-difluoro-3-methyl-4-phosphobutanoic acid, in place of p-Thr, C[C@H]([C@H](N[*:1])C(=O)[*:2])C(F)(F)P(=O)(O)O; Abu(3R-Me,4-PO3H2) = C[C@@H](CP(=O)(O)O)[C@H](N)C(=O)O; pT = C[C@@H](OP(=O)(O)O)[C@H](N)C(=O)O

Legend:
Flag-Plk3(K52R) [1] = target: T1, Flag-Plk3(K52R) (UniProt Q9H4B4 40-646, K52R); assay: pull-down from mixed HeLa lysates, anti-Flag blot (FIG. 4B)
T1 construct: A gift construct; K52 may be counted on another entry than the printed human one; not shown: Flag tag

[2] = target: T2, Plk1 (endogenous, in mitotic HeLa cell lysates) (UniProt P53350 2-603); assay: pull-down from mitotic HeLa lysate with bead-immobilised peptide (FIG. 4A)
T2 construct: Endogenous full-length protein in total lysate of nocodazole-arrested HeLa cells; also called polo-like kinase 1

Flag-Plk3(K52R) [3] = target: T1, Flag-Plk3(K52R); assay: assay not given; pull-downs of Examples 3 and 6
Flag-Plk2(K607R, Y626F) = target: T3, Flag-Plk2(K607R, Y626F) (UniProt Q9NYY3 1-685); assay: pull-down of transfected HeLa lysate with immobilised MQSpTPL (FIG. 15B)
T3 construct: not shown: Flag tag

[4] = target: T4, Flag-Plk2(L606F, K607R, 5608T, D609R, K610S, Y626F, H627Q) (UniProt Q9NYY3 1-685); assay: as above
T4 construct: 5608T is read as S608T; not shown: Flag tag

HA-EGFP-Plk1 [5] = target: T5, HA-EGFP-Plk1 (UniProt P53350 1-603); assay: ELISA competition (FIG. 16A)
T5 construct: also called full-length Plk1 (ELISA); not shown: HA tag and EGFP

HA-EGFP-Plk1 [6] = target: T5, HA-EGFP-Plk1; assay: ELISA competition on immobilised biotinylated p-T78 9-mer (FIG. 16A)
[7] = target: T2, Plk1 (endogenous, in mitotic HeLa cell …); assay: pull-down from mitotic HeLa lysate with bead-immobilised peptide (FIG. 13A)

T1 sequence (Q9H4B4 40-646 K91R): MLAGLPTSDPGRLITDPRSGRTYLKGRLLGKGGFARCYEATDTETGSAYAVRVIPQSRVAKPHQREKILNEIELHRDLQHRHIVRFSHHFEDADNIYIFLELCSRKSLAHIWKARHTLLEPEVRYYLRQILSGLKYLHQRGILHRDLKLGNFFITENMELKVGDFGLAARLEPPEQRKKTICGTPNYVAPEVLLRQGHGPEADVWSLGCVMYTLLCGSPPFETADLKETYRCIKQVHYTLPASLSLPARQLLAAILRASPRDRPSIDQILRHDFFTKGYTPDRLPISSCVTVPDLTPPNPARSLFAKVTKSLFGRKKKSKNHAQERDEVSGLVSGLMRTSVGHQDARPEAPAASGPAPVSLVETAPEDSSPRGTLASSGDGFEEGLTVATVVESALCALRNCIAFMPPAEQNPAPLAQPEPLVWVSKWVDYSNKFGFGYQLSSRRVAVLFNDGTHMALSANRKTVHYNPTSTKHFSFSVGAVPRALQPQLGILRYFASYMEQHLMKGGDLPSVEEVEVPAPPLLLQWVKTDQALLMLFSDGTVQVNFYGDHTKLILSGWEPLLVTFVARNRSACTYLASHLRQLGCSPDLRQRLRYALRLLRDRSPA
T2 sequence (P53350 2-603 limits assumed): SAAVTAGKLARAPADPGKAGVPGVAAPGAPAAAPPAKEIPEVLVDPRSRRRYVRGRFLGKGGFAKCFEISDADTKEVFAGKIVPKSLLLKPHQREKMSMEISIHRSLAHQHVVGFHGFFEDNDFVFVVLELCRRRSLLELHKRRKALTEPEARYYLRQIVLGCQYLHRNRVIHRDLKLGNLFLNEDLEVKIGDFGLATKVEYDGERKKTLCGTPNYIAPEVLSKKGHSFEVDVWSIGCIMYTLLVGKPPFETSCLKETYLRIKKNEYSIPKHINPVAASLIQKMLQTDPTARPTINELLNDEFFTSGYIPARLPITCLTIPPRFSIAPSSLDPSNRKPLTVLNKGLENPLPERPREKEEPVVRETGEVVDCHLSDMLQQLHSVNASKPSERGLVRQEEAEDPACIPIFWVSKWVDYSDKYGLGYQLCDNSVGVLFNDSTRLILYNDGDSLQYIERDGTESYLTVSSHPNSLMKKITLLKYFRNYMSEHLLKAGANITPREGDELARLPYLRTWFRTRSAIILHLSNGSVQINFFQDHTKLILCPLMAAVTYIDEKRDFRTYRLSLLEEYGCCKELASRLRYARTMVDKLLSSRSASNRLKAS
T5 sequence (P53350 whole entry): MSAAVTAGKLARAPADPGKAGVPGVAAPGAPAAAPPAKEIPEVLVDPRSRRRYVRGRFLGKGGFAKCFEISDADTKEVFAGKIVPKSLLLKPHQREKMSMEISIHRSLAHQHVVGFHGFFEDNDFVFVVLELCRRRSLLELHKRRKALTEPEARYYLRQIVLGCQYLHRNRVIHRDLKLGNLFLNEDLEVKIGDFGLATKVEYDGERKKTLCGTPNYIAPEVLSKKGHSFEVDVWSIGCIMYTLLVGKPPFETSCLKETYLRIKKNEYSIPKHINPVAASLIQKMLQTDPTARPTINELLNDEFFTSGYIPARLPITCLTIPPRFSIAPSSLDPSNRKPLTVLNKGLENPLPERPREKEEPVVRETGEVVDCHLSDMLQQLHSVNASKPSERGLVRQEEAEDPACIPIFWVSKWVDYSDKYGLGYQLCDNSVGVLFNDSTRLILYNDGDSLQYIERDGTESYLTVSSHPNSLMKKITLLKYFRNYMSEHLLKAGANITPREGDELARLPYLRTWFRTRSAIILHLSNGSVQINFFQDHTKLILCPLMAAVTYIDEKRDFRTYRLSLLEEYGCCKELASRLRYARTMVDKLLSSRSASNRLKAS
T3 sequence (Q9NYY3 whole entry K607R/Y626F): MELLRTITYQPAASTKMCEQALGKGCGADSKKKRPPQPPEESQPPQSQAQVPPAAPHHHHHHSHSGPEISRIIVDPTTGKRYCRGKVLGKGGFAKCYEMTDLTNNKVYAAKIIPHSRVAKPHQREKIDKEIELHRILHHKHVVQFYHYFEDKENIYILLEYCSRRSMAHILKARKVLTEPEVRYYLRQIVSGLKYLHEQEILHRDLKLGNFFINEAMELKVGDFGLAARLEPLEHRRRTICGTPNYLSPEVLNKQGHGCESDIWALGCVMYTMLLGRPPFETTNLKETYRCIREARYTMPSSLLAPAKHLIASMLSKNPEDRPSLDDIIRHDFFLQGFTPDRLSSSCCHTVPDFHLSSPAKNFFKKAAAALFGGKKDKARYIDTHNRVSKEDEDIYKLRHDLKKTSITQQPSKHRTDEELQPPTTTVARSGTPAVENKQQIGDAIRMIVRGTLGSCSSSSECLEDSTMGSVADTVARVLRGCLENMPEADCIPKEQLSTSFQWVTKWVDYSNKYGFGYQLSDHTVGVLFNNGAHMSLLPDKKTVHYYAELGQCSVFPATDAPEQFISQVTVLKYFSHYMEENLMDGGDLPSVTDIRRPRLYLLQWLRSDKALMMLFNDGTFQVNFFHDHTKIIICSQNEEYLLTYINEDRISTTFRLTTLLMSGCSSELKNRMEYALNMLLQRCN
T4 sequence (Q9NYY3 whole entry L606F/K607R/S608T/D609R/K610S/Y626F/H627Q): as the sequence (Q9NYY3 whole entry K607R/Y626F) above, with L606F, S608T, D609R, K610S, H627Q counted along it

B1: PLHS-Pmab (peptide)
peptide: PLHS[Abu(3R-Me,4-PO3H2)]
modifications: also: N-acetylated in soluble form, N-terminal Cys-(CH2)6 linker in pull-down form
notes: also called C-(CH2)6-PLHS-Pmab
binding result (Flag-Plk3(K52R) [1]): no binding

B2: PLHA-Pmab (peptide)
peptide: PLHA[Abu(3R-Me,4-PO3H2)]
modifications: also: N-acetylated in soluble form
notes: also called Pmab(S77A); C-(CH2)6-PLHA-Pmab
binding result [2]: no binding

B3: PLHSpT (peptide)
peptide: PLHS[pT]
modifications: also: Ac and C-terminal amide in soluble form, N-terminal Cys-(CH2)6 linker in pull-down form
notes: Derived from the Thr78 region of PBIP1; also called Ac-PLHSpT-NH2; C-(CH2)6-PLHSpT
binding result (Flag-Plk3(K52R) [3]): no binding

MQS[pT]PL (also: in pull-downs N-terminal Cys-(CH2)6 linker cross-linked to beads, also called synthetic optimal peptide) [MQSpTPL]
binding result (Flag-Plk2(K607R, Y626F)): no binding
binding result [4]: no binding

PLHS[F2Pmab]A (also: in pull-downs N-terminal Cys-(CH2)6 linker cross-linked to beads, also called C-(CH2)6-PLHS-F2Pmab-A) [PLHS-F2Pmab-A]
binding result (HA-EGFP-Plk1 [5]): binds

B4: PLHA-F2Pmab-A (peptide)
peptide: PLHA[F2Pmab]A
modifications: also: in pull-downs N-terminal Cys-(CH2)6 linker cross-linked to beads
notes: also called F2Pmab(S77A); C-(CH2)6-PLHA-F2Pmab-A
binding result (HA-EGFP-Plk1 [6]): no binding (tested: 1000-fold higher molar concentrations)
binding result [7]: no binding
